How the values were obtained:
[1] = system: Putidaredoxin W106A mutant; experiment: continuous-wave EPR; conditions: other: continuous-wave EPR (high-spin to low-spin conversion of the heme)
[2] = system: Putidaredoxin D38A mutant; experiment: continuous-wave EPR; conditions: other: continuous-wave EPR (high-spin to low-spin conversion of the heme)

## MTSL-P450cam (P450cam labelled with MTSL at S48C and S190C)
[1]
  conversion from the high-spin to low-spin state: approximately 50% conversion
[2]
  conversion from the high-spin to low-spin state: approximately 50% conversion
